Starred links: 1 amine or outer side, 2 acyl side, 3 side chain; linkers in the order of their positions; H or OH if unused. Positions of bridges follow the written chain, without caps; N, C: chain ends. Non-standard residues stand in square brackets, D forms with d. Groups on a side chain read outwards from the residue. Primed or numbered codes have the meaning given here. No end group written: not given here. *: point of attachment. PEG8′ = PEG8 unit (23-azido-3,6,9,12,15,18,21-heptaoxatricosyl, i.e. an eight-unit PEG spacer) linking the triazole to vitamin E succinate; Pra′ = propargylglycine (built in as LPH), clicked to a 1-substituted triazol-4-yl-alanine, O=C([C@H](Cc1cn([*:3])nn1)N[*:1])[*:2]; X1 = (S)‑3‑carboxy‑3‑(15-carboxypentadecanoylamino)propyl, O=C(O)CCCCCCCCCCCCCCC(=O)N[C@@H](CC*)C(=O)O; Pra″ = its azide, alkyne or alkene has reacted where a group follows in round brackets; X2 = (S)‑3‑carboxy‑3‑palmitamidopropyl, CCCCCCCCCCCCCCCC(=O)N[C@@H](CC*)C(=O)O; Pra(3) = propargylglycine, clicked to an azide to give a triazolyl-alanine; triazole = 1,2,3-triazole formed by click of the Pra alkyne with the azide; Trp(1-CH2CO) = O=C([C@H](Cc1cn(CC(=O)[*:3])c2ccccc12)N[*:1])[*:2]; Phe(3,4,5-F3) = N[C@@H](Cc1cc(F)c(F)c(F)c1)C(=O)O; Biotin = O=C1N[C@H]2[C@H](CS[C@H]2CCCCC(=O)*)N1; C18 diacid = O=C(O)CCCCCCCCCCCCCCCCC(=O)*; Phe(4-F) = N[C@@H](Cc1ccc(F)cc1)C(=O)O; γGlu = O=C(O)[C@H](CCC(=O)[*:2])N[*:1]; Palmitoyl = CCCCCCCCCCCCCCCC(=O)*; Hyp = O=C(O)[C@@H]1C[C@@H](O)CN1; NMeF = CN[C@@H](Cc1ccccc1)C(=O)O; NMeE = CN[C@@H](CCC(=O)O)C(=O)O; dHyp = O=C(O)[C@H]1C[C@H](O)CN1; NMeNle = CCCC[C@H](NC)C(=O)O; Suc = O=C(CCC(=O)[*:2])[*:1]; triazole″ = not defined here; Pip = O=C(O)[C@@H]1CCCCN1; NMeA = CN[C@@H](C)C(=O)O; Orn = NCCC[C@H](N)C(=O)O; PEG7′ = not defined here; Pra = C#CC[C@H](N)C(=O)O; Dab = NCC[C@H](N)C(=O)O; Dap = NC[C@H](N)C(=O)O; Sar = CNCC(=O)O
B1: Example 14084 (peptide)
peptide: {CH2CO}-[Phe(3,4,5-F3)][NMeF][NMeNle][dHyp]DV[NMeF]D[dP]WYLCG[Pra″]([triazole-(S)‑3‑carboxy‑3‑aminopropyl-Palmitoyl])
modifications: thioether N-13; not fully specified; printed as ClAc-F3Phe-mPhe-mNle-dHyp-Asp-Val-mPhe-Asp-dPro-Trp-Tyr-Leu-Cys-Gly-[(S)-propargylglycine]
B2: Example 14088 (peptide)
peptide: FFXPDVFDPWYLCGX
modifications: as m17 (INT 1400L); Pra triazole-linked to vitamin E succinate 5-azidopentylamide
B3: INT-1400J (peptide)
peptide: {CH2CO}-Y[NMeA]DPHK[Hyp]WK[Trp(1-CH2CO)][NMeNle][NMeNle]ECG[Pra]
modifications: thioether N-14; not fully specified (C-terminus); printed as ClAc-Tyr-mAla-Asp-Pro-His-Lys-Hyp-Trp-Lys-Trp(1-carboxymethyl)-mNle-mNle-Glu-Cys-Gly-[(S)-propargylglycine], cyclised ClAc-Cys
notes: also called Intermediate 1400J

What follows are binders tested against T1, Recombinant Human PD-L1-TVMV-His (human, UniProt Q9NZQ7 19-239) (assay: HTRF vs PD-1-Ig; B = IC50 0.01-0.099 µM).
T1 construct: expressed in HEK293T cells; also called PD-L1-His; hPD-L1(19-239)-TVMV-His
T1 sequence (Q9NZQ7 other isoform, or with tags, fused parts or gaps limits assumed): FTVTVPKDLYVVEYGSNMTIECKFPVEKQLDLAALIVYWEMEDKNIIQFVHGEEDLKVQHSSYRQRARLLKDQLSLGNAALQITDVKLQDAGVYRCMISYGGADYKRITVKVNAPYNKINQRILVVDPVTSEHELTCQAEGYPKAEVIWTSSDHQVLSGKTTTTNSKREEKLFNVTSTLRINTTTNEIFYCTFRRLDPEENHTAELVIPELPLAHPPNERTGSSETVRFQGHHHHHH
Procedure: (§1) Homogenous Time-Resolved Fluorescence (HTRF) Assays of Binding of Soluble PD-1 to Soluble PD-L1. Soluble PD-1 and soluble PD-L1 refers to proteins with carboxyl-end truncations that remove the transmembrane-spanning regions and are fused to heterologous sequences, specifically the Fc portion of the human immunoglobuling G sequence (Ig) or the hexahistidine epitope tag (His). All binding studies were performed in an HTRF assay buffer consisting of dPBS supplemented with 0.1% (w/v) bovine serum albumin and 0.05% (v/v) Tween-20. For the PD-1-Ig/PD-L1-His binding assay, inhibitors were pre-incubated with PD-L1-His (10 nM final) for 15 m in 4 μl of assay buffer, followed by addition of PD-1-Ig (20 nM final) in 1 μl of assay buffer and further incubation for 15 m. PD-L1 fusion proteins from either human, cynomologous macaques, mouse, or other species were used. HTRF detection was achieved using europium crypate-labeled anti-Ig monoclonal antibody (1 nM final) and allophycocyanin (APC) labeled anti-His monoclonal antibody (20 nM final). Antibodies were diluted in HTRF detection buffer and 5 μl was dispensed on top of binding reaction. The reaction was allowed to equilibrate for 30 minutes and signal (665 nm/620 nm ratio) was obtained using an EnVision fluorometer. Additional binding assays were established between PD-I-Ig/PD-L2-His (20 and 5 nM, respectively), CD80-His/PD-L1-Ig (100 and 10 nM, respectively) and CD80-His/CTLA4-Ig (10 and 5 nM, respectively). Binding/competition studies between biotinylated Compound No. 71 and human PD-L1-His were performed as follows. Macrocyclic peptide inhibitors were pre-incubated with PD-L1-His (10 nM final) for 60 minutes in 4 μl of assay buffer followed by addition of biotinylated Compound No. 71 (0.5 nM final) in 1 μl of assay buffer. Binding was allowed to equilibrate for 30 minutes followed by addition of europium crypated labeled Streptavidin (2.5 pM final) and APC-labeled anti-His (20 nM final) in 5 μl of HTRF buffer. The reaction was allowed to equilibrate for 30 m and signal (665 nm/620 nm ratio) was obtained using an EnVision fluorometer.

{CH2CO}-Y[NMeA]DPHK[Hyp]WK[Trp(1-CH2CO)][NMeNle][NMeNle]ECG[Pra′]([triazole-X1]) (thioether N-14) [Example 14078] gave an IC50 of 10 to 99 nM.

The binders below were run against T1, Recombinant Human PD-L1-TVMV-His (assay: HTRF vs PD-1-Ig).
Procedure: as §1

Compared with {CH2CO}-[Phe(4-F)][Pip]DP[Dap]L[Hyp]W[Dab][Trp(1-CH2CO)][NMeNle][NMeNle]LCG[Dab]([γGlu-C18 diacid]) (thioether N-14 (inferred)) [Example 13150], {CH2CO}-Y[NMeA]DPHK[Hyp]WKW[NMeNle][NMeNle]ECG[Pra′]([triazole-X1]) (thioether N-14) [Example 14067] is 2-fold lower in IC50: 20.9 nM for the first, 10.4 nM for the second. The second is the more potent here.

Compared with {CH2CO}-Y[NMeA]NP[Dap]L[Hyp]W[Dab][Trp(1-CH2CO)][NMeNle][NMeNle]LCGG[Pra″]([triazole-PEG7′-γGlu-C18 diacid]) (thioether N-14 (inferred)) [Example 13123], {CH2CO}-Y[NMeA]DPHQ[Hyp]WSW[NMeNle][NMeNle]ECG[Pra(3)]([triazole″-PEG8′-Suc-vitamin E])G (thioether N-14; reading uncertain) [Example 14055] is 2.6-fold higher in IC50: 150 nM for the first, 388 nM for the second.

Compared with B1, {CH2CO}-Y[NMeA]DPHK[Hyp]WK[Trp(1-CH2CO)][NMeNle][NMeNle]ECG[Pra′]([triazole-X2]) (thioether N-14) [Example 14072] is 74-fold lower in IC50: 627 nM for the first, 8.5 nM for the second.

First: {CH2CO}-F[NMeF][NMeNle][Sar]DV[NMeF]Y[NMeE]WYLCGGGK([PEG4‑propionyl-Biotin])-NH2 (thioether N-13) [Example 3620]
Second: B2
The IC50 of the first is 89-fold lower: 9 nM for the first, 799 nM for the second. The first is the more potent here.

B3 and {CH2CO}-Y[NMeA]DPHK[Hyp]WK[Trp(1-CH2CO)][NMeNle][NMeNle]ECG[Pra′]([triazole-X1]) (thioether N-14) [Example 14078] are within 1.5-fold of each other in IC50: 8.8 nM for the first, 10.8 nM for the second.

These binders were tested against T1, Recombinant Human PD-L1-TVMV-His (assay: HTRF vs PD-1-Ig; A = IC50 0.10-1.6 µM).
Procedure: as §1

{CH2CO}-[Phe(3,4,5-F3)][NMeF][NMeNle][dP]DV[NMeF][Orn][dP]WYLCG[Pra′]([triazole-X2]) (thioether N-13) [Example 14081] and {CH2CO}-Y[NMeA]NP[Dap]L[Hyp]W[Dab][Trp(1-CH2CO)][NMeNle][NMeNle]LCGG[Pra″]([triazole-(S)‑4‑azido‑2‑palmitamidobutanoic acid]) (thioether N-14 (inferred)) [Example 13122] fall in the same range of IC50: 100 to 1600 nM for the first, 100 to 1600 nM for the second.
